Laboratory results from patent US20260234247A1 (published 2026).
Residue numbers refer to the chain shown, from its start.

B1: LK-RB1-17 (antibody, human IgG4 S228P, kappa, V domains shown)
VH: QVQLQQPGAELVKPGASVKLSCEASGYTFTNYWIHWVKQRPGRGLEWIGRIAPNSGGTKYNEKFKTRATLTVDKASTTAYMQLSSLTSEDSAVYYCARLDGSPYYFDYWGQGTTLTVSS
VL: DIVMTQSQKFMSTSIGDRVSVTCKASQNVDTNVAWYQQKPGQSPKALIYSASYRYSGIPDRFTGSGSGTDFTLTISNVQSEDLAEYFCQQYNSYPYTFGGGTKLEIKR
B2: LK-RB1-32 (antibody, human IgG4 S228P, kappa, V domains shown)
VH: QVQLQQSGAELAKPGASVKLSCTASGYTFTTYLMHWVKQRPAQGLEWIGYINPSNDFTKYNQKFKDKATLTADTSSSTAYMQLNSLTFEDSAVYYCARNSDYDPSYWGQGTTLTVSS
VL: DIQMTQSPASLSVSVGETVTITCRASENIYSSLAWYQQKQGKSPQLLVYAATNLADGVPSRFSGSGSGTQYSLKINSLQSEDFGNYYCQHFWGTWAFGGGTKLEIKR
B3: LK-RB1-35 (antibody, human IgG4 S228P, kappa, V domains shown)
VH: DVQLQESGPGLEKPSQSLSLTCSVTGYSITRGYQWNWIRQFPGNKLEWMGYISYDGSNNYNPSLKNRISITRDASKNQFFLKLNSVTTEDTATYYCARRSYNSIDYWGQGTTLTVSS
VL: DIVLTQSPATLSVTPGDSVSLSCRASQSISSNLHWYQQKSHESPRLLIKYASQSISGIPSRFSGSGSGTDFTLSINSVETEDFGMYFCQQSNSWPLTFGAGTKLELKR
B4: LK-RB1-36 (antibody, human IgG4 S228P, kappa, V domains shown)
VH: B3 VH with T71I, A74T
VL: B3 VL with S31N
B5: LK-RB1-31 (antibody, human IgG4 S228P, kappa, V domains shown)
VH: QVQLKESGPGLVAPSQSLSITCTVSGFSLTSYGVSWVRQPPGKGLEWLGIIWGDGSTNYHSALKSRLSISKDNSKSQVFLKLNSLQTEDTATYYCAKPNWDYYAMDYWGQGTSVTVSS
VL: DIQMTQTTSSLSASLGDRVTISCRASQDISNYLNWYLQKPDGTVKLLIYYTSRLHSGVPSRFSGSGSGTDYSLTISNLEQEDIATYFCQQGITLPCTFGGGTKLEIKR
B6: LK-RB1-54 (antibody, human IgG4 S228P, kappa, V domains shown)
VH: DVQLQESGPGLVKPSQSLSLTCSVTGYSITSGFYWNWIRQFPGNKLEWMGHISYDGTNNYNPSLKNRISITRDTSKNLFFLKLNSVTTEDTATFHCARGGYGGSYGFDYWGQGTTLTVSS
VL: ENVLTQSPAIMSASLGEKVTMSCRASSSVNYMYWYQQKSDASPKLWIYYTSNLAPGVPVRFSGSGSGNSYSLTISSMEGEDAATYYCQQFTSSPWTFGGGTKLEIKR
B7: LK-RB1-37 (antibody, human IgG4 S228P, kappa, V domains shown)
VH: QVQLQQPGAELVKPGASVKLSCKASGYTFTSYWMHWVKQRPGRGPEWIGRIDPNSGYARYNEKFKNKATLTADKPSSTADMHLSSLTSEDSAVYYCTRSFITTAEWFFDVWGTGTTVTVSS
VL: DILLTQSPAILSVSPGERVSFSCRASQSIGTSIHWYQQRRNGSPRLLIKYTSESISGIPSRFSGSGSGTDFTLSINSVESEDIADYYCQQSNSWPHTFGGGTKLELKR
B8: LK-RB1-28 (antibody, human IgG4 S228P, kappa, V domains shown)
VH: QVQLQQSGPELVKPGTSVKMSCKASGYTFTSHYIHWMKQRPGQGLDWIGWIYPGDGHTKYHEKFKGKATLTADTSSITAYMQLSLLTSEDSAVYYCVYYSDSWFPYWGQGTLVTVSA
VL: DIQMTQSPASLSVSVGETVTITCRASENIYSNLAWYQQKQGKSPQLLVYAATNLADGVPSRFSGSGSGTQYSLKINSLQSEDFGNYFCQHFWGSPWTFGGGTKLEIKR
B9: LK-RB1-43 (antibody, human IgG4 S228P, kappa, V domains shown)
VH: EFQLQQSGPELMKPGASVKISCKASGYSFTDYNMNWVKQSNGKSLEWIGIIDPNYGTTTYNQKFKGRATLTVDQSSNTAYMQLNSLTSEDSAVYYCAREGRYSWFAYWGQGTLVTVSA
VL: B8 VL with A9G, S10A, Y30N, N85S, F87H, S94T, W96F, G100S

target: T1, human LILRB2 on CHOK1 cells (human, UniProt Q8N423 22-597); assay: FACS binding, CHOK1-hLILRB2 cells
T1 construct: whole, on cells; also called CHOK1-hLILRB2; CHOK1-LILRB2
T1 sequence (Q8N423 22-597): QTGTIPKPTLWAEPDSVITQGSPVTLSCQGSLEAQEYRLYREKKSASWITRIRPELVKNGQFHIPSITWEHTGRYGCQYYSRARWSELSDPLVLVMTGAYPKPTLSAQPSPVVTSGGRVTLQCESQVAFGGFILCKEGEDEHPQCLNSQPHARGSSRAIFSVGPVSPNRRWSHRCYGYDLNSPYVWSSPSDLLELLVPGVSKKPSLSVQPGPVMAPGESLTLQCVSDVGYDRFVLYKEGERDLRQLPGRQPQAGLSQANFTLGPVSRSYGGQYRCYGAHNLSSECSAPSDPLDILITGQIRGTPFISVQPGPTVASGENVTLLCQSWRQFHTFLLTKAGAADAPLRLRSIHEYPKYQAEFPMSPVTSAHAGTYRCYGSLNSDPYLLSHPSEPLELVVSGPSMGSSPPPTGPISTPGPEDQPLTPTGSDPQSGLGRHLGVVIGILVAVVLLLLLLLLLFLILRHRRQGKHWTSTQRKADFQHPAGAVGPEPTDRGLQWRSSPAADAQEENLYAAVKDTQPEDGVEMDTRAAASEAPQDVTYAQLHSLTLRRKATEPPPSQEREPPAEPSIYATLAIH

| EC50 | binding result | Binder |
| --- | --- | --- |
| 47.4 nM |  | B1 |
|  | no binding | B2 |
|  | no binding | B3 |
|  | no binding | B4 |
|  | no binding | B5 |
|  | no binding | B6 |
|  | no binding | B7 |
| 5.72 nM |  | B8 |
|  | no binding | B9 |

target: T2, human LILRB1 on CHOK1 cells (human, UniProt Q8NHL6 24-650); assay: FACS binding, CHOK1-hLILRB1 cells
T2 construct: whole, on cells; also called CHOK1-hLILRB1; CHOK1-LILRB1
T2 sequence (Q8NHL6 24-650): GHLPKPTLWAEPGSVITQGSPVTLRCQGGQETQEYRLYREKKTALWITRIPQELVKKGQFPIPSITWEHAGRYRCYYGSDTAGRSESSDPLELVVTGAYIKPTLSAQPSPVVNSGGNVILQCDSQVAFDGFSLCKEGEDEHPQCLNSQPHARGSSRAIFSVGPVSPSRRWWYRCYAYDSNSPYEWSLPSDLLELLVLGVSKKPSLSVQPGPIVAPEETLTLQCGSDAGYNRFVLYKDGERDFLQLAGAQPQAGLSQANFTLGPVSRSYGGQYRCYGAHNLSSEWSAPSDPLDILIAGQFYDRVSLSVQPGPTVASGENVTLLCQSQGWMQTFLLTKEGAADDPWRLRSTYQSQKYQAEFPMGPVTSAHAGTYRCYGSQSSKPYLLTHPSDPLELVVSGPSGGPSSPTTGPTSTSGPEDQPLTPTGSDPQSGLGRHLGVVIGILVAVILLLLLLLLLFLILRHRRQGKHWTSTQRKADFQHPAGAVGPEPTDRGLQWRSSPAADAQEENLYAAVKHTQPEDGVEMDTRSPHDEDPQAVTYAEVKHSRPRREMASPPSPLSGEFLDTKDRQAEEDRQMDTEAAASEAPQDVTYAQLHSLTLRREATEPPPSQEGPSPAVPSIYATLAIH

| EC50 | Binder |
| --- | --- |
| 5.53 nM | B1 |
| 2.44 nM | B2 |
| 0.44 nM | B3 |
| 0.46 nM | B4 |
| 2.91 nM | B5 |
| 2.51 nM | B7 |
| 1.33 nM | B8 |
